Measured values: PMC8298264, “Function of cofactor Akirin2 in the regulation of gene expression in model human neutrophil-like HL60 cells” (Bioscience Reports, 2021)

Test system: human HL60 cells
Experiment: SWATH-MS proteomics, differential protein representation, akirin2 KO vs WT HL60 cells
Type: cell-based
Details: akirin2 KO vs WT HL60 cells; sheet "Under-represented in KO"
In short: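 Read-out is label-free SWATH-MS protein area, globally normalized to total detected-protein area, with identifications held at 1% FDR against a library from information-dependent acquisition.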

Row | Molecule | Fold Change | Log (Fold Change)
1 | sp¦P53618¦COPB_HUMAN (protein, UniProt P53618 2-953, looked up) Coatomer subunit beta: TAAENVCYTLINVPMDSEPPSEISLKNDLEKGDVKSKTEALKKVIIMILNGEKLPGLLMTIIRFVLPLQDHTIKKLLLVFWEIVPKTTPDGRLLHEMILVCDAYRKDLQHPNEFIRGSTLRFLCKLKEAELLEPLMPAIRACLEHRHSYVRRNAVLAIYTIYRNFEHLIPDAPELIHDFLVNEKDASCKRNAFMMLIHADQDRALDYLSTCIDQVQTFGDILQLVIVELIYKVCHANPSERARFIRCIYNLLQSSSPAVKYEAAGTLVTLSSAPTAIKAAAQCYIDLIIKESDNNVKLIVLDRLIELKEHPAHERVLQDLVMDILRVLSTPDLEVRKKTLQLALDLVSSRNVEELVIVLKKEVIKTNNVSEHEDTDKYRQLLVRTLHSCSVRFPDMAANVIPVLMEFLSDNNEAAAADVLEFVREAIQRFDNLRMLIVEKMLEVFHAIKSVKIYRGALWILGEYCSTKEDIQSVMTEIRRSLGEIPIVESEIKKEAGELKPEEEITVGPVQKLVTEMGTYATQSALSSSRPTKKEEDRPPLRGFLLDGDFFVAASLATTLTKIALRYVALVQEKKKQNSFVAEAMLLMATILHLGKSSLPKKPITDDDVDRISLCLKVLSECSPLMNDIFNKECRQSLSHMLSAKLEEEKLSQKKESEKRNVTVQPDDPISFMQLTAKNEMNCKEDQFQLSLLAAMGNTQRKEAADPLASKLNKVTQLTGFSDPVYAEAYVHVNQYDIVLDVLVVNQTSDTLQNCTLELATLGDLKLVEKPSPLTLAPHDFANIKANVKVASTENGIIFGNIVYDVSGAASDRNCVVLSDIHIDIMDYIQPATCTDAEFRQMWAEFEWENKVTVNTNMVDLNDYLQHILKSTNMKCLTPEKALSGYCGFMAANLYARSIFGEDALANVSIEKPIHQGPDAAVTGHIRIRAKSQGMALSLGDKINLSQKKTSI | 0.4243 | -0.3723
2 | sp¦Q9BUQ8¦DDX23_HUMAN (protein, UniProt Q9BUQ8 1-820, looked up) Probable ATP-dependent RNA …: MAGELADKKDRDASPSKEERKRSRTPDRERDRDRDRKSSPSKDRKRHRSRDRRRGGSRSRSRSRSKSAERERRHKERERDKERDRNKKDRDRDKDGHRRDKDRKRSSLSPGRGKDFKSRKDRDSKKDEEDEHGDKKPKAQPLSLEELLAKKKAEEEAEAKPKFLSKAEREAEALKRRQQEVEERQRMLEEERKKRKQFQDLGRKMLEDPQERERRERRERMERETNGNEDEEGRQKIREEKDKSKELHAIKERYLGGIKKRRRTRHLNDRKFVFEWDASEDTSIDYNPLYKERHQVQLLGRGFIAGIDLKQQKREQSRFYGDLMEKRRTLEEKEQEEARLRKLRKKEAKQRWDDRHWSQKKLDEMTDRDWRIFREDYSITTKGGKIPNPIRSWKDSSLPPHILEVIDKCGYKEPTPIQRQAIPIGLQNRDIIGVAETGSGKTAAFLIPLLVWITTLPKIDRIEESDQGPYAIILAPTRELAQQIEEETIKFGKPLGIRTVAVIGGISREDQGFRLRMGCEIVIATPGRLIDVLENRYLVLSRCTYVVLDEADRMIDMGFEPDVQKILEHMPVSNQKPDTDEAEDPEKMLANFESGKHKYRQTVMFTATMPPAVERLARSYLRRPAVVYIGSAGKPHERVEQKVFLMSESEKRKKLLAILEQGFDPPIIIFVNQKKGCDVLAKSLEKMGYNACTLHGGKGQEQREFALSNLKAGAKDILVATDVAGRGIDIQDVSMVVNYDMAKNIEDYIHRIGRTGRAGKSGVAITFLTKEDSAVFYELKQAILESPVSSCPPELANHPDAQHKPGTILTKKRREETIFA | 0.4207 | -0.376
3 | sp¦Q8WZA0¦LZIC_HUMAN (protein, UniProt Q8WZA0 1-190, looked up) Protein LZIC: MASRGKTETSKLKQNLEEQLDRLMQQLQDLEECREELDTDEYEETKKETLEQLSEFNDSLKKIMSGNMTLVDELSGMQLAIQAAISQAFKTPEVIRLFAKKQPGQLRTRLAEMDRDLMVGKLERDLYTQQKVEILTALRKLGEKLTADDEAFLSANAGAILSQFEKVSTDLGSGDKILALASFEVEKTKK | 0.433 | -0.3635
4 | sp¦Q9BX68¦HINT2_HUMAN (protein, UniProt Q9BX68 18-163, looked up) Adenosine …: VAATGVRGGQVRGAAGVTDGNEVAKAQQATPGGAAPTIFSRILDKSLPADILYEDQQCLVFRDVAPQAPVHFLVIPKKPIPRISQAEEEDQQLLGHLLLVAKQTAKAEGLGDGYRLVINDGKLGAQSVYHLHIHVLGGRQLQWPPG | 0.4303 | -0.3662
5 | sp¦Q8IX12¦CCAR1_HUMAN (protein, UniProt Q8IX12 1-1150, looked up) Cell division cycle and …: MAQFGGQKNPPWATQFTATAVSQPAALGVQQPSLLGASPTIYTQQTALAAAGLTTQTPANYQLTQTAALQQQAAAAAAALQQQYSQPQQALYSVQQQLQQPQQTLLTQPAVALPTSLSLSTPQPTAQITVSYPTPRSSQQQTQPQKQRVFTGVVTKLHDTFGFVDEDVFFQLSAVKGKTPQVGDRVLVEATYNPNMPFKWNAQRIQTLPNQNQSQTQPLLKTPPAVLQPIAPQTTFGVQTQPQPQSLLQAQISAASITPLLQTQPQPLLQQPQQKAGLLQPPVRIVSQPQPARRLDPPSRFSGRNDRGDQVPNRKDDRSRERERERRRSRERSPQRKRSRERSPRRERERSPRRVRRVVPRYTVQFSKFSLDCPSCDMMELRRRYQNLYIPSDFFDAQFTWVDAFPLSRPFQLGNYCNFYVMHREVESLEKNMAILDPPDADHLYSAKVMLMASPSMEDLYHKSCALAEDPQELRDGFQHPARLVKFLVGMKGKDEAMAIGGHWSPSLDGPDPEKDPSVLIKTAIRCCKALTGIDLSVCTQWYRFAEIRYHRPEETHKGRTVPAHVETVVLFFPDVWHCLPTRSEWETLSRGYKQQLVEKLQGERKEADGEQDEEEKDDGEAKEISTPTHWSKLDPKTMKVNDLRKELESRALSSKGLKSQLIARLTKQLKVEEQKEEQKELEKSEKEEDEDDDRKSEDDKEEEERKRQEEIERQRRERRYILPDEPAIIVHPNWAAKSGKFDCSIMSLSVLLDYRLEDNKEHSFEVSLFAELFNEMLQRDFGVRIYKSLLSLPEKEDKKEKDKKSKKDERKDKKEERDDETDEPKPKRRKSGDDKDKKEDRDERKKEDKRKDDSKDDDETEEDNNQDEYDPMEAEEAEDEEDDRDEEEMTKRDDKRDINRYCKERPSKDKEKEKTQMITINRDLLMAFVYFDQSHCGYLLEKDLEEILYTLGLHLSRAQVKKLLNKVVLRESCFYRKLTDTSKDEENHEESESLQEDMLGNRLLLPTPTVKQESKDVEENVGLIVYNGAMVDVGSLLQKLEKSEKVRAEVEQKLQLLEEKTDEDEKTILNLENSNKSLSGELREVKKDLSQLQENLKISENMNLQFENQMNKTIRNLSTVMDEIHTVLKKDNVKNEDKDQKSKENGASV | 0.4166 | -0.3803
6 | sp¦Q9UQE7¦SMC3_HUMAN (protein, UniProt Q9UQE7 1-1217, looked up) Structural maintenance of …: MYIKQVIIQGFRSYRDQTIVDPFSSKHNVIVGRNGSGKSNFFYAIQFVLSDEFSHLRPEQRLALLHEGTGPRVISAFVEIIFDNSDNRLPIDKEEVSLRRVIGAKKDQYFLDKKMVTKNDVMNLLESAGFSRSNPYYIVKQGKINQMATAPDSQRLKLLREVAGTRVYDERKEESISLMKETEGKREKINELLKYIEERLHTLEEEKEELAQYQKWDKMRRALEYTIYNQELNETRAKLDELSAKRETSGEKSRQLRDAQQDARDKMEDIERQVRELKTKISAMKEEKEQLSAERQEQIKQRTKLELKAKDLQDELAGNSEQRKRLLKERQKLLEKIEEKQKELAETEPKFNSVKEKEERGIARLAQATQERTDLYAKQGRGSQFTSKEERDKWIKKELKSLDQAINDKKRQIAAIHKDLEDTEANKEKNLEQYNKLDQDLNEVKARVEELDRKYYEVKNKKDELQSERNYLWREENAEQQALAAKREDLEKKQQLLRAATGKAILNGIDSINKVLDHFRRKGINQHVQNGYHGIVMNNFECEPAFYTCVEVTAGNRLFYHIVDSDEVSTKILMEFNKMNLPGEVTFLPLNKLDVRDTAYPETNDAIPMISKLRYNPRFDKAFKHVFGKTLICRSMEVSTQLARAFTMDCITLEGDQVSHRGALTGGYYDTRKSRLELQKDVRKAEEELGELEAKLNENLRRNIERINNEIDQLMNQMQQIETQQRKFKASRDSILSEMKMLKEKRQQSEKTFMPKQRSLQSLEASLHAMESTRESLKAELGTDLLSQLSLEDQKRVDALNDEIRQLQQENRQLLNERIKLEGIITRVETYLNENLRKRLDQVEQELNELRETEGGTVLTATTSELEAINKRVKDTMARSEDLDNSIDKTEAGIKELQKSMERWKNMEKEHMDAINHDTKELEKMTNRQGMLLKKKEECMKKIRELGSLPQEAFEKYQTLSLKQLFRKLEQCNTELKKYSHVNKKALDQFVNFSEQKEKLIKRQEELDRGYKSIMELMNVLELRKYEAIQLTFKQVSKNFSEVFQKLVPGGKATLVMKKGDVEGSQSQDEGEGSGESERGSGSQSSVPSVDQFTGVGIRVSFTGKQGEMREMQQLSGGQKSLVALALIFAIQKCDPAPFYLFDEIDQALDAQHRKAVSDMIMELAVHAQFITTTFRPELLESADKFYGVKFRNKVSHIDVITAEMAKDFVEDDTTHG | 0.4375 | -0.359
7 | sp¦Q99442¦SEC62_HUMAN (protein, UniProt Q99442 1-399, looked up) Translocation protein SEC62: MAERRRHKKRIQEVGEPSKEEKAVAKYLRFNCPTKSTNMMGHRVDYFIASKAVDCLLDSKWAKAKKGEEALFTTRESVVDYCNRLLKKQFFHRALKVMKMKYDKDIKKEKDKGKAESGKEEDKKSKKENIKDEKTKKEKEKKKDGEKEESKKEETPGTPKKKETKKKFKLEPHDDQVFLDGNEVYVWIYDPVHFKTFVMGLILVIAVIAATLFPLWPAEMRVGVYYLSVGAGCFVASILLLAVARCILFLIIWLITGGRHHFWFLPNLTADVGFIDSFRPLYTHEYKGPKADLKKDEKSETKKQQKSDSEEKSDSEKKEDEEGKVGPGNHGTEGSGGERHSDTDSDRREDDRSQHSSGNGNDFEMITKEELEQQTDGDCEEDEEEENDGETPKSSHEKS | 0.4401 | -0.3564
8 | sp¦O43719¦HTSF1_HUMAN (protein, UniProt O43719 2-755, looked up) 17S U2 SnRNP complex …: SGTNLDGNDEFDEQLRMQELYGDGKDGDTQTDAGGEPDSLGQQPTDTPYEWDLDKKAWFPKITEDFIATYQANYGFSNDGASSSTANVEDVHARTAEEPPQEKAPEPTDARKKGEKRKAESGWFHVEEDRNTNVYVSGLPPDITVDEFIQLMSKFGIIMRDPQTEEFKVKLYKDNQGNLKGDGLCCYLKRESVELALKLLDEDEIRGYKLHVEVAKFQLKGEYDASKKKKKCKDYKKKLSMQQKQLDWRPERRAGPSRMRHERVVIIKNMFHPMDFEDDPLVLNEIREDLRVECSKFGQIRKLLLFDRHPDGVASVSFRDPEEADYCIQTLDGRWFGGRQITAQAWDGTTDYQVEETSREREERLRGWEAFLNAPEANRGLRRSDSVSASERAGPSRARHFSEHPSTSKMNAQETATGMAFEEPIDEKKFEKTEDGGEFEEGASENNAKESSPEKEAEEGCPEKESEEGCPKRGFEGSCSQKESEEGNPVRGSEEDSPKKESKKKTLKNDCEENGLAKESEDDLNKESEEEVGPTKESEEDDSEKESDEDCSEKQSEDGSEREFEENGLEKDLDEEGSEKELHENVLDKELEENDSENSEFEDDGSEKVLDEEGSEREFDEDSDEKEEEEDTYEKVFDDESDEKEDEEYADEKGLEAADKKAEEGDADEKLFEESDDKEDEDADGKEVEDADEKLFEDDDSNEKLFDEEEDSSEKLFDDSDERGTLGGFGSVEEGPLSTGSSFILSSDDDDDDI | 0.1732 | -0.7615
